Assay results from patent publication US20220016257A1 (Daiichi Sankyo, published 2022).

Experiments:
[1] = target: T1, human CDH6 (full-length, on cells) (human, UniProt P55285 54-790); assay: competition flow cytometry on 786-O/hCDH6 cells, unlabeled antibody varied, competitor Alexa488-labeled NOV0712 at 5 nM [upper panel]
T1 construct: also called hCDH6; full-length hCDH6
T1 sequence: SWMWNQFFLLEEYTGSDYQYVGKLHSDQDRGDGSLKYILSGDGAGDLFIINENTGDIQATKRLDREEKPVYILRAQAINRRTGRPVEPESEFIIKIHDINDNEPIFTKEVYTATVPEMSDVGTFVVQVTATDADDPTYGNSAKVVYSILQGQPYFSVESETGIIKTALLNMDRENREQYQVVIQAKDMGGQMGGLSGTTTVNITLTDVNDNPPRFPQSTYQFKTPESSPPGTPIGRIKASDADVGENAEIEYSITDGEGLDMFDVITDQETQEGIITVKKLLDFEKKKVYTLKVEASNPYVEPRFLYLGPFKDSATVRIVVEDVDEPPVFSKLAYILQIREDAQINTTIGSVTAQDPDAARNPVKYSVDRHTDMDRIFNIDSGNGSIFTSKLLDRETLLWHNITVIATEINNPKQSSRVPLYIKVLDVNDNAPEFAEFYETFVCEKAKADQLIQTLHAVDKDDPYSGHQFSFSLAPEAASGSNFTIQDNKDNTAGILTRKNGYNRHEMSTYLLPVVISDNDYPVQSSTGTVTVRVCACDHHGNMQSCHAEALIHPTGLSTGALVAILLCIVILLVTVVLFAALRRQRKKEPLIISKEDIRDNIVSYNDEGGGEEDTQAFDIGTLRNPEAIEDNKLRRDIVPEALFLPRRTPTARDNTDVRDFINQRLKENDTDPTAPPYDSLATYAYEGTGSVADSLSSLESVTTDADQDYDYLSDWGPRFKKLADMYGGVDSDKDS
Protocol: The cell suspension of the 786-O/hCDH6 stably expressing cell line produced in 6)-2-2-1 was centrifuged, and the supernatant was then removed. Thereafter, the cells were suspended by the addition of labeled NOV0712 or labeled H01L02 (final concentration: 5 nM) and, further, the addition of each of the 4 humanized hG019 antibodies (clone Nos: H01L02, H02L02, H02L03 and H04L02), which had been prepared in Example 5)-5-3, or the anti-CDH6 antibody NOV0712, which had been prepared in Reference Example 1, or human IgG1 (Calbiochem) as a negative control (final concentration: as shown in the abscissa of FIG. 7). The cells were left standing at 4° C. for 1 hour. Thereafter, the cells were washed twice with PBS supplemented with 5% FBS, followed by detection using a flow cytometer (Canto II; BD Biosciences). The data was analyzed using FlowJo (TreeStar, Inc.). The abscissa depicts the final concentration of the added unlabeled antibody, and the ordinate depicts the amount of the antibody bound based on mean fluorescence intensity. When unlabeled NOV0712 is added to cells supplemented with labeled NOV0712, the amount of the labeled antibody bound is decreased by replacement with the unlabeled antibody in an addition concentration-dependent manner because they compete with each other for binding to the same epitope. […]

[2] = target: T2, EC5-deleted human CDH6 (EC5 deletion mutant, on cells) (human, UniProt P55285 54-790); assay: flow cytometry, 293α cells transiently expressing EC5-deleted hCDH6 (open) against untransfected cells (shaded), APC anti-human IgG F(ab')2
T2 construct: Full-length human CDH6 lacking EC5; Cloned in p3xFLAG-CMV-9; also called EC5-deleted hCDH6
T2 sequence: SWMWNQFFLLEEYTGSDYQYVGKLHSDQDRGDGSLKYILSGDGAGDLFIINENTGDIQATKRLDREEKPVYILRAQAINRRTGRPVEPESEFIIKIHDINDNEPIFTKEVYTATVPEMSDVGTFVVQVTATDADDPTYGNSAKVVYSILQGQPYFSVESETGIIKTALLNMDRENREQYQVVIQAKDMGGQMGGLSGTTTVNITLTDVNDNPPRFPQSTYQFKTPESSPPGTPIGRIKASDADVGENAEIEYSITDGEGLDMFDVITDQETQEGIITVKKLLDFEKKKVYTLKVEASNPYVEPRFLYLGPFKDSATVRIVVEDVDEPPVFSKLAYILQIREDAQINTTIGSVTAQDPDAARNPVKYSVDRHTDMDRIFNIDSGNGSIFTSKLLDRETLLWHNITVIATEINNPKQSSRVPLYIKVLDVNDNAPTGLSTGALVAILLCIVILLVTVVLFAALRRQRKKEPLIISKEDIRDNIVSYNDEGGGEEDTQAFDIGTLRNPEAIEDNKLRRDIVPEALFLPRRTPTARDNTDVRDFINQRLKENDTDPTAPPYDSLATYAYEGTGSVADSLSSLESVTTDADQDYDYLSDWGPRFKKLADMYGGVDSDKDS
Protocol: Thereafter, the cells were suspended by the addition of each of the 4 humanized hG019 antibodies (clone Nos: H01L02, H02L02, H02L03 and H04L02), which had been prepared in Example 5)-5-3, or the anti-CDH6 antibody NOV0712, which had been prepared in Reference Example 1, or human IgG1 (Calbiochem) as a negative control. The cells were left standing at 4° C. for 1 hour. The cells were washed twice with PBS supplemented with 5% FBS, and then suspended by the addition of APC-anti-human IgG goat F(ab′)2 (Jackson ImmunoResearch Laboratories, Inc.) that had been 500-fold diluted with PBS supplemented with 5% FBS. The cells were left standing at 4° C. for 1 hour. The cells were washed twice with PBS supplemented with 5% FBS, followed by detection using a flow cytometer (Canto II; BD Biosciences). The data was analyzed using FlowJo (TreeStar, Inc.). In the histograms of FIGS. 5-1 to 5-6, the abscissa depicts APC fluorescence intensity indicating the amount of the antibody bound, and the ordinate depicts cell count. […] Fluorescence intensity is enhanced when the antibody binds to full-length hCDH6 or each EC domain deletion mutant on the cell surface. The human IgG1 control binds to none of the transfected cells.

B1: anti-CDH6 antibody NOV0712 (antibody, V domains shown)
VH: QVQLLESGGGLVQPGGSLRLSCAASGFTFSSHGMHWVRQAPGKGLEWVSVISGSGSNTGYADSVKGRFTISRDNSKNTLYLQMNSLRAEDTAVYYCARQWGSYAFDSWGQGTLVTVSS
VL: DIQMTQSPSSLSASVGDRVTITCRASQSISSYLNWYQQKPGKAPKLLIYAVSTLQSGVPSRFSGSGSGTDFTLTISSLQPEDFATYYCQQSGTFPPTTFGQGTKVEIKR
IC50 (read off the curve) [1]: ~4 nM
binding result [2]: no binding (tested: not given)
